B1: SORBS3 (protein, UniProt O60504 1-671, looked up)
Vinexin: MQGPPRSLRAGLSLDDFIPGHLQSHIGSSSRGTRVPVIRNGGSNTLNFQFHDPAPRTVCNGGYTPRRDASQHPDPAWYQTWPGPGSKPSASTKIPASQHTQNWSATWTKDSKRRDKRWVKYEGIGPVDESGMPIAPRSSVDRPRDWYRRMFQQIHRKMPDLQLDWTFEEPPRDPRHLGAQQRPAHRPGPATSSSGRSWDHSEELPRSTFNYRPGAFSTVLQPSNQVLRRREKVDNVWTEESWNQFLQELETGQRPKKPLVDDPGEKPSQPIEVLLERELAELSAELDKDLRAIETRLPSPKSSPAPRRAPEQRPPAGPASAWSSSYPHAPYLGSARSLSPHKMADGGSPFLGRRDFVYPSSTRDPSASNGGGSPARREEKKRKAARLKFDFQAQSPKELTLQKGDIVYIHKEVDKNWLEGEHHGRLGIFPANYVEVLPADEIPKPIKPPTYQVLEYGEAVAQYTFKGDLEVELSFRKGEHICLIRKVNENWYEGRITGTGRQGIFPASYVQVSREPRLRLCDDGPQLPTSPRLTAAARSARHPSSPSALRSPADPIDLGGQTSPRRTGFSFPTQEPRPQTQNLGTPGPALSHSRGPSHPLDLGTSSPNTSQIHWTPYRAMYQYRPQNEDELELREGDRVDVMQQCDDGWFVGVSRRTQKFGTFPGNYVAPV
B2: RRBP1 (protein, UniProt Q9P2E9 1-1410, looked up)
Ribosome-binding protein 1: MDIYDTQTLGVVVFGGFMVVSAIGIFLVSTFSMKETSYEEALANQRKEMAKTHHQKVEKKKKEKTVEKKGKTKKKEEKPNGKIPDHDPAPNVTVLLREPVRAPAVAVAPTPVQPPIIVAPVATVPAMPQEKLASSPKDKKKKEKKVAKVEPAVSSVVNSIQVLTSKAAILETAPKEVPMVVVPPVGAKGNTPATGTTQGKKAEGTQNQSKKAEGAPNQGRKAEGTPNQGKKTEGTPNQGKKAEGTPNQGKKAEGTPNQGKKAEGAQNQGKKVDTTPNQGKKVEGAPTQGRKAEGAQNQAKKVEGAQNQGKKAEGAQNQGKKGEGAQNQGKKAEGAQNQGKKAEGAQNQGKKAEGAQNQGKKAEGAQNQGKKAEGAQNQGKKAEGAQNQGKKVEGAQNQGKKAEGAQNQGKKAEGAQNQGKKAEGAQNQGKKAEGAQNQGKKAEGAQNQGKKAEGAQNQGKKAEGAQNQGKKVEGAQNQGKKAEGAQNQGKKAEGAQNQGKKAEGAQNQGQKGEGAQNQGKKTEGAQGKKAERSPNQGKKGEGAPIQGKKADSVANQGTKVEGITNQGKKAEGSPSEGKKAEGSPNQGKKADAAANQGKKTESASVQGRNTDVAQSPEAPKQEAPAKKKSGSKKKGEPGPPDADGPLYLPYKTLVSTVGSMVFNEGEAQRLIEILSEKAGIIQDTWHKATQKGDPVAILKRQLEEKEKLLATEQEDAAVAKSKLRELNKEMAAEKAKAAAGEAKVKKQLVAREQEITAVQARMQASYREHVKEVQQLQGKIRTLQEQLENGPNTQLARLQQENSILRDALNQATSQVESKQNAELAKLRQELSKVSKELVEKSEAVRQDEQQRKALEAKAAAFEKQVLQLQASHRESEEALQKRLDEVSRELCHTQSSHASLRADAEKAQEQQQQMAELHSKLQSSEAEVRSKCEELSGLHGQLQEARAENSQLTERIRSIEALLEAGQARDAQDVQASQAEADQQQTRLKELESQVSGLEKEAIELREAVEQQKVKNNDLREKNWKAMEALATAEQACKEKLLSLTQAKEESEKQLCLIEAQTMEALLALLPELSVLAQQNYTEWLQDLKEKGPTLLKHPPAPAEPSSDLASKLREAEETQSTLQAECDQYRSILAETEGMLRDLQKSVEEEEQVWRAKVGAAEEELQKSRVTVKHLEEIVEKLKGELESSDQVREHTSHLEAELEKHMAAASAECQNYAKEVAGLRQLLLESQSQLDAAKSEAQKQSDELALVRQQLSEMKSHVEDGDIAGAPASSPEAPPAEQDPVQLKTQLEWTEAILEDEQTQRQKLTAEFEEAQTSACRLQEELEKLRTAGPLESSETEEASQLKERLEKEKKLTSDLGRAATRLQELLKTTQEQLAREKDTVKKLQEQLEKAEDGSSSKEGTSV

What was measured:
[1] = biological target: T1, HCV ORFs (Gal4-DB fusions) (Hepatitis C virus genotype 1b, UniProt Q9WMX2); assay type: binding, HCV genotype 1b, isolate con1; details: HCV protein NS5A as bait; human protein as prey
T1 construct: expressed in transfected cells; host or cells: Saccharomyces cerevisiae MAV203 (IMAP1) / AH109 (IMAP2)
T1 sequence (Q9WMX2 1973-2419): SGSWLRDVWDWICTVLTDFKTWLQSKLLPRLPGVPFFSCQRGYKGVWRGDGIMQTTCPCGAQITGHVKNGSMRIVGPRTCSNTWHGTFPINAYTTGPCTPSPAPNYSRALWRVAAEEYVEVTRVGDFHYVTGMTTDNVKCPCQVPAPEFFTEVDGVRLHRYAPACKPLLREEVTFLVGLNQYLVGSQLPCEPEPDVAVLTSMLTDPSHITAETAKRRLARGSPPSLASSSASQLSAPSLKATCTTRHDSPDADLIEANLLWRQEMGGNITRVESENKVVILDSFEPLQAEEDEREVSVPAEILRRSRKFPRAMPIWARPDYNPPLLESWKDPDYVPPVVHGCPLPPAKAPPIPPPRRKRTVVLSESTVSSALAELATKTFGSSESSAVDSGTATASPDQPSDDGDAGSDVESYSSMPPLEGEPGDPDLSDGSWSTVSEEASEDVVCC

[2] = tested on: HCV ORFs (Gal4-DB fusions); assay type: binding, HCV genotype 1b, isolate con1; details: human protein listed by gene symbol; the value names the HCV protein it interacts with
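Note: yeast two-hybrid screens using HCV genotype 1b proteins fused to Gal4-DB as baits against prey cDNA libraries from human spleen and foetal brain, IMAP1 via transformation and IMAP2 via mating.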

Row | Molecule | IMAP Y2H IMAP2 (number of IST) [1] | Interaction with viral protein [2]
1 | B1 | 1 | NS5A
2 | B2 | 2 | NS5A
